Source: publication PMC7367873, “Dissecting the sequence determinants for dephosphorylation by the catalytic subunits of phosphatases PP1 and PP2A” (Nature Communications, 2020)

How the values were obtained:
[1] = tested on: GFP-14-3-3β and its binding proteins; experiment: GFP-14-3-3β co-IP with LC-MS/MS label-free quantification, untreated versus PP1c-treated; design: species or system human; conditions: pairwise comparison PP1 vs untreated, student's t-test; 3 replicates each; LC-MS/MS label-free quantification
[2] = tested on: GFP-14-3-3β; experiment: GFP-14-3-3β co-IP with LC-MS/MS, untreated GFP-14-3-3β versus GFP control (14-3-3 interactome); format: binding, human; conditions: pairwise comparison untreated GFP-14-3-3β vs GFP, student's t-test; 3 replicates each; LC-MS/MS label-free quantification

Row | Molecule | Difference (log2), PP1 vs untreated [1] [log2] | Difference (log2), untreated vs GFP [2] [log2]
1 | RAPGEF2 (protein, UniProt Q9Y4G8 1-1499, looked up) Rap guanine nucleotide …: MKPLAIPANHGVMGQQEKHSLPADFTKLHLTDSLHPQVTHVSSSHSGCSITSDSGSSSLSDIYQATESEAGDMDLSGLPETAVDSEDDDDEEDIERASDPLMSRDIVRDCLEKDPIDRTDDDIEQLLEFMHQLPAFANMTMSVRRELCAVMVFAVVERAGTIVLNDGEELDSWSVILNGSVEVTYPDGKAEILCMGNSFGVSPTMDKEYMKGVMRTKVDDCQFVCIAQQDYCRILNQVEKNMQKVEEEGEIVMVKEHRELDRTGTRKGHIVIKGTSERLTMHLVEEHSVVDPTFIEDFLLTYRTFLSSPMEVGKKLLEWFNDPSLRDKVTRVVLLWVNNHFNDFEGDPAMTRFLEEFENNLEREKMGGHLRLLNIACAAKAKRRLMTLTKPSREAPLPFILLGGSEKGFGIFVDSVDSGSKATEAGLKRGDQILEVNGQNFENIQLSKAMEILRNNTHLSITVKTNLFVFKELLTRLSEEKRNGAPHLPKIGDIKKASRYSIPDLAVDVEQVIGLEKVNKKSKANTVGGRNKLKKILDKTRISILPQKPYNDIGIGQSQDDSIVGLRQTKHIPTALPVSGTLSSSNPDLLQSHHRILDFSATPDLPDQVLRVFKADQQSRYIMISKDTTAKEVVIQAIREFAVTATPDQYSLCEVSVTPEGVIKQRRLPDQLSKLADRIQLSGRYYLKNNMETETLCSDEDAQELLRESQISLLQLSTVEVATQLSMRNFELFRNIEPTEYIDDLFKLRSKTSCANLKRFEEVINQETFWVASEILRETNQLKRMKIIKHFIKIALHCRECKNFNSMFAIISGLNLAPVARLRTTWEKLPNKYEKLFQDLQDLFDPSRNMAKYRNVLNSQNLQPPIIPLFPVIKKDLTFLHEGNDSKVDGLVNFEKLRMIAKEIRHVGRMASVNMDPALMFRTRKKKWRSLGSLSQGSTNATVLDVAQTGGHKKRVRRSSFLNAKKLYEDAQMARKVKQYLSNLELEMDEESLQTLSLQCEPATNTLPKNPGDKKPVKSETSPVAPRAGSQQKAQSLPQPQQQPPPAHKINQGLQVPAVSLYPSRKKVPVKDLPPFGINSPQALKKILSLSEEGSLERHKKQAEDTISNASSQLSSPPTSPQSSPRKGYTLAPSGTVDNFSDSGHSEISSRSSIVSNSSFDSVPVSLHDERRQRHSVSIVETNLGMGRMERRTMIEPDQYSLGSYAPMSEGRGLYATATVISSPSTEELSQDQGDRASLDAADSGRGSWTSCSSGSHDNIQTIQHQRSWETLPFGHTHFDYSGDPAGLWASSSHMDQIMFSDHSTKYNRQNQSRESLEQAQSRASWASSTGYWGEDSEGDTGTIKRRGGKDVSIEAESSSLTSVTTEETKPVPMPAHIAVASSTTKGLIARKEGRYREPPPTPPGYIGIPITDFPEGHSHPARKPPDYNVALQRSRMVARSSDTAGPSSVQQPHGHPTSSRPVNKPQWHKPNESDPRLAPYQSQGFSTEEDEDEQVSAV | -3.585 | 2.788
2 | NCKAP1 (protein, UniProt Q9Y2A7 2-1128, looked up) Nck-associated protein 1: SRSVLQPSQQKLAEKLTILNDRGVGMLTRLYNIKKACGDPKAKPSYLIDKNLESAVKFIVRKFPAVETRNNNQQLAQLQKEKSEILKNLALYYFTFVDVMEFKDHVCELLNTIDVCQVFFDITVNFDLTKNYLDLIITYTTLMILLSRIEERKAIIGLYNYAHEMTHGASDREYPRLGQMIVDYENPLKKMMEEFVPHSKSLSDALISLQMVYPRRNLSADQWRNAQLLSLISAPSTMLNPAQSDTMPCEYLSLDAMEKWIIFGFILCHGILNTDATALNLWKLALQSSSCLSLFRDEVFHIHKAAEDLFVNIRGYNKRINDIRECKEAAVSHAGSMHRERRKFLRSALKELATVLSDQPGLLGPKALFVFMALSFARDEIIWLLRHADNMPKKSADDFIDKHIAELIFYMEELRAHVRKYGPVMQRYYVQYLSGFDAVVLNELVQNLSVCPEDESIIMSSFVNTMTSLSVKQVEDGEVFDFRGMRLDWFRLQAYTSVSKASLGLADHRELGKMMNTIIFHTKMVDSLVEMLVETSDLSIFCFYSRAFEKMFQQCLELPSQSRYSIAFPLLCTHFMSCTHELCPEERHHIGDRSLSLCNMFLDEMAKQARNLITDICTEQCTLSDQLLPKHCAKTISQAVNKKSKKQTGKKGEPEREKPGVESMRKNRLVVTNLDKLHTALSELCFSINYVPNMVVWEHTFTPREYLTSHLEIRFTKSIVGMTMYNQATQEIAKPSELLTSVRAYMTVLQSIENYVQIDITRVFNNVLLQQTQHLDSHGEPTITSLYTNWYLETLLRQVSNGHIAYFPAMKAFVNLPTENELTFNAEEYSDISEMRSLSELLGPYGMKFLSESLMWHISSQVAELKKLVVENVDVLTQMRTSFDKPDQMAALFKRLSSVDSVLKRMTIIGVILSFRSLAQEALRDVLSYHIPFLVSSIEDFKDHIPRETDMKVAMNVYELSSAAGLPCEIDPALVVALSSQKSENISPEEEYKIACLLMVFVAVSLPTLASNVMSQYSPAIEGHCNNIHCLAKAINQIAAALFTIHKGSIEDRLKEFLALASSSLLKIGQETDKTTTRNRESVYLLLDMIVQESPFLTMDLLESCFPYVLLRNAYHAVYKQSVTSSA | -3.667 | 2.589
3 | CCDC6 (protein, UniProt Q16204 2-474, looked up) Coiled-coil domain-containing …: ADSASESDTDGAGGNSSSSAAMQSSCSSTSGGGGGGGGGGGGGKSGGIVISPFRLEELTNRLASLQQENKVLKIELETYKLKCKALQEENRDLRKASVTIQARAEQEEEFISNTLFKKIQALQKEKETLAVNYEKEEEFLTNELSRKLMQLQHEKAELEQHLEQEQEFQVNKLMKKIKKLENDTISKQLTLEQLRREKIDLENTLEQEQEALVNRLWKRMDKLEAEKRILQEKLDQPVSAPPSPRDISMEIDSPENMMRHIRFLKNEVERLKKQLRAAQLQHSEKMAQYLEEERHMREENLRLQRKLQREMERREALCRQLSESESSLEMDDERYFNEMSAQGLRPRTVSSPIPYTPSPSSSRPISPGLSYASHTVGFTPPTSLTRAGMSYYNSPGLHVQHMGTSHGITRPSPRRSNSPDKFKRPTPPPSPNTQTPVQPPPPPPPPPMQPTVPSAATSQPTPSQHSAHPSSQP | -3.654 | 4.515
4 | IRS2 (protein, UniProt Q9Y4H2 1-1338, looked up) Insulin receptor substrate 2: MASPPRHGPPGPASGDGPNLNNNNNNNNHSVRKCGYLRKQKHGHKRFFVLRGPGAGGDEATAGGGSAPQPPRLEYYESEKKWRSKAGAPKRVIALDCCLNINKRADAKHKYLIALYTKDEYFAVAAENEQEQEGWYRALTDLVSEGRAAAGDAPPAAAPAASCSASLPGALGGSAGAAGAEDSYGLVAPATAAYREVWQVNLKPKGLGQSKNLTGVYRLCLSARTIGFVKLNCEQPSVTLQLMNIRRCGHSDSFFFIEVGRSAVTGPGELWMQADDSVVAQNIHETILEAMKALKELFEFRPRSKSQSSGSSATHPISVPGARRHHHLVNLPPSQTGLVRRSRTDSLAATPPAAKCSSCRVRTASEGDGGAAAGAAAAGARPVSVAGSPLSPGPVRAPLSRSHTLSGGCGGRGSKVALLPAGGALQHSRSMSMPVAHSPPAATSPGSLSSSSGHGSGSYPPPPGPHPPLPHPLHHGPGQRPSSGSASASGSPSDPGFMSLDEYGSSPGDLRAFCSHRSNTPESIAETPPARDGGGGGEFYGYMTMDRPLSHCGRSYRRVSGDAAQDLDRGLRKRTYSLTTPARQRPVPQPSSASLDEYTLMRATFSGSAGRLCPSCPASSPKVAYHPYPEDYGDIEIGSHRSSSSNLGADDGYMPMTPGAALAGSGSGSCRSDDYMPMSPASVSAPKQILQPRAAAAAAAAVPSAGPAGPAPTSAAGRTFPASGGGYKASSPAESSPEDSGYMRMWCGSKLSMEHADGKLLPNGDYLNVSPSDAVTTGTPPDFFSAALHPGGEPLRGVPGCCYSSLPRSYKAPYTCGGDSDQYVLMSSPVGRILEEERLEPQATPGPSQAASAFGAGPTQPPHPVVPSPVRPSGGRPEGFLGQRGRAVRPTRLSLEGLPSLPSMHEYPLPPEPKSPGEYINIDFGEPGARLSPPAPPLLASAASSSSLLSASSPASSLGSGTPGTSSDSRQRSPLSDYMNLDFSSPKSPKPGAPSGHPVGSLDGLLSPEASSPYPPLPPRPSASPSSSLQPPPPPPAPGELYRLPPASAVATAQGPGAASSLSSDTGDNGDYTEMAFGVAATPPQPIAAPPKPEAARVASPTSGVKRLSLMEQVSGVEAFLQASQPPDPHRGAKVIRADPQGGRRRHSSETFSSTTTVTPVSPSFAHNPKRHNSASVENVSLRKSSEGGVGVGPGGGDEPPTSPRQLQPAPPLAPQGRPWTPGQPGGLVGCPGSGGSPMRRETSAGFQNGLNYIAIDVREEPGLPPQPQPPPPPLPQPGDKSSWGRTRSLGGLISAVGVGSTGGGCGGPGPGALPPANTYASIDFLSHHLKEATIVKE | -3.665 | 7.914
5 | ZFP36L2 (protein, UniProt P47974 1-494, looked up) mRNA decay activator protein …: MSTTLLSAFYDVDFLCKTEKSLANLNLNNMLDKKAVGTPVAAAPSSGFAPGFLRRHSASNLHALAHPAPSPGSCSPKFPGAANGSSCGSAAAGGPTSYGTLKEPSGGGGTALLNKENKFRDRSFSENGDRSQHLLHLQQQQKGGGGSQINSTRYKTELCRPFEESGTCKYGEKCQFAHGFHELRSLTRHPKYKTELCRTFHTIGFCPYGPRCHFIHNADERRPAPSGGASGDLRAFGTRDALHLGFPREPRPKLHHSLSFSGFPSGHHQPPGGLESPLLLDSPTSRTPPPPSCSSASSCSSSASSCSSASAASTPSGAPTCCASAAAAAAAALLYGTGGAEDLLAPGAPCAACSSASCANNAFAFGPELSSLITPLAIQTHNFAAVAAAAYYRSQQQQQQQGLAPPAQPPAPPSATLPAGAAAPPSPPFSFQLPRRLSDSPVFDAPPSPPDSLSDRDSYLSGSLSSGSLSGSESPSLDPGRRLPIFSRLSISDD | -3.391 | 3.556
